Values belong to the binder of their own block, whether it stands above or below them. Bridges are numbered along the chain shown (N, C = ends). Primed or numbered codes have the meaning given here. [ ]: non-standard residue; d: D form. Ygp″ = O-(PEG8-amino)-tyrosine (O-(8x polyethylene glycol-amino)-tyrosine); Yn3″ = O-(PEG9-azido)-tyrosine (O-(9x polyethylene glycol-azido)-tyrosine); Ygp = O-(8x polyethylene glycol-amino)-tyrosine; Yn3 = O-(9x polyethylene glycol-azido)-tyrosine; cleavable moiety = not defined here; Ygp(3) = O-(PEG8-amino)-tyrosine; Yn3(3) = O-(PEG9-azido)-tyrosine; PEG4′ = 4x polyethylene glycol; PEG9″ = 9x polyethylene glycol; hSer = N[C@@H](CCO)C(=O)O; Nle = CCCC[C@H](N)C(=O)O
Legend:
[1] = target: T1, IL-2 receptor βγ complex on pan T cells (human, UniProt P14784 27-551; P31785 23-369); experiment: cell-based or functional assay
T1 sequence (looked up) 1: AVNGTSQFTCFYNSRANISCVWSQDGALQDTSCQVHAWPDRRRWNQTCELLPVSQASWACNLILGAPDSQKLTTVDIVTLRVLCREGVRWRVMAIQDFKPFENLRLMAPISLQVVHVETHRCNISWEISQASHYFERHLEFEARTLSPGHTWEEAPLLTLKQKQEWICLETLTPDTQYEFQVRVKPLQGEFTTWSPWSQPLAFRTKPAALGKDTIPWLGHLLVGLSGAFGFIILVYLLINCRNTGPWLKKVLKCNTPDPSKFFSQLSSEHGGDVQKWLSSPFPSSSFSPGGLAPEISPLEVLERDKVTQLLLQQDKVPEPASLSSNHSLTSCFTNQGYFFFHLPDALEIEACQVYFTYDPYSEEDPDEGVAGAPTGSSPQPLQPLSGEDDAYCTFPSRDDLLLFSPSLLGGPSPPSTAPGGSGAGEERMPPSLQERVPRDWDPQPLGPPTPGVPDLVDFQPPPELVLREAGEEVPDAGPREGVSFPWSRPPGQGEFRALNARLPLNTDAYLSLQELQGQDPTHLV
T1 sequence (looked up) 2: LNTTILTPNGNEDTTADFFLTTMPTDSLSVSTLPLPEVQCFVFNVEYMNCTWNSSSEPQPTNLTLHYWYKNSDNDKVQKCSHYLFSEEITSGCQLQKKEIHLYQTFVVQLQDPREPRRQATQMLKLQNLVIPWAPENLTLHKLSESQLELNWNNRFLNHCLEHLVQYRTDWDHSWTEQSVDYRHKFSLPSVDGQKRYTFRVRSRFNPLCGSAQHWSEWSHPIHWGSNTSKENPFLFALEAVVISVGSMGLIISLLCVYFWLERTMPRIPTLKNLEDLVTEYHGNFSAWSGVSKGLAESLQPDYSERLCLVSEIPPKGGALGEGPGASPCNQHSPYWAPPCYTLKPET

[2] = target: T2, recombinant human IL-2 receptor beta containing a His-tag and Avi-Tag (R&D Systems #AVI10459) (human, UniProt P14784 27-239); experiment: BLI (Octet), receptor on SAX2 sensor, IL-2 as analyte
T2 construct: bought protein, held on the Octet SAX2 sensor; also called CD122; IL-2Rβ
T2 sequence (looked up): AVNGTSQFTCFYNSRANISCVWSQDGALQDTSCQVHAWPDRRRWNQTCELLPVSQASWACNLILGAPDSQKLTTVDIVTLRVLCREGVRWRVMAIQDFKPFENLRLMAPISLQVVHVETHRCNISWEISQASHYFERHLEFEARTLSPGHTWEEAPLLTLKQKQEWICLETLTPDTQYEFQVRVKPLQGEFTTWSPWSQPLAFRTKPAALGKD
Procedure: (§1) Bilayer interferometry (BLI) assays were used to measure the binding constants between activatable IL-2 polypeptides (and activated versions thereof) to IL-2 receptor subunits or receptor complexes. BLI assays were conducted on an Octet® R8 instrument. Assay plates were 96 well, polypropylene, F-bottom (chimney well), black microplates (Greiner Bio-one, Cat. No: 655209). The biosensors were Octet® SAX2 (Sartorius, Cat. No: 18-5136). The assay buffer was 1× Kinetic Buffer (Sartorius, Cat. no: 18-5136) or Phosphate Buffered Saline (PBS) that contained 0.02% (v: v) Tween 20 (Polysorbate 20) and 0.1% (w/v) bovine serum albumin (BSA). The sensor was regenerated between measurements in 10 mM glycine pH 2.7 buffer.
(§2) Sensor attached receptors were either recombinant human IL-2 receptor beta containing a His-tag and Avi-Tag™ (R&D Systems™ #AVI10459) or an Avi-Tag™ Fc with human IL-2R beta and IL-2R gamma attached (Acrobiosystems Cat. no: ACRB-ILG-H82F3-25UG). Receptors were reconstituted from lyophilized powder to 500 μg/ml in PBS. Analytes were diluted in Kinetic buffer to 300 nM, then serially diluted to lower concentrations.

[3] = target: T3, Avi-Tag Fc with human IL-2R beta and IL-2R gamma attached (Acrobiosystems ACRB-ILG-H82F3-25UG) (human, UniProt P14784 27-239; P31785 23-262); experiment: as above
T3 construct: bought heterodimer; also called CD122 CD132; CD122/CD132 complex
T3 sequence (looked up) 1: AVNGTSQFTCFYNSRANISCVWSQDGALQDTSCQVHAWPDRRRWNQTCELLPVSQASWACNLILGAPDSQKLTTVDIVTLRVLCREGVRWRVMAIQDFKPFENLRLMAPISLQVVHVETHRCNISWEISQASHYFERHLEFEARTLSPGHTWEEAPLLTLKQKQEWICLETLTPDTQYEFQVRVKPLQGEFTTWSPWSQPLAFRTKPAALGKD
T3 sequence (looked up) 2: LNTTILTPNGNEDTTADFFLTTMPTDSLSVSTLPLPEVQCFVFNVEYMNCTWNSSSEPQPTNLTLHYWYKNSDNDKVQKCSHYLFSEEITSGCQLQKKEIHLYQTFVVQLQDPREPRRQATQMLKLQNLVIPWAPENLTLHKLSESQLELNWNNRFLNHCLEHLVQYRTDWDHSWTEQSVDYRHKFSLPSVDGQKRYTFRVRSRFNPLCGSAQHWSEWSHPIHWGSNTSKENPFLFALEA
Procedure: as §1, §2

B2: CMP-301, MMP2 cleaved (ligand)
chain: APTSSSTKKTQLQLEHLLLDLQEILNGINNYKNPKLTR[Nle]L[hSer][Yn3]KF[Ygp][Nle]PKKATELKHLQCLEEELKPLEEVL[hSer]LAQSKNFHLRPRDLISNINVIVLELKGSETTF[hSer]CEYADETATIVEFLNRWITFSQSIISTLT
modifications: ends and bridges not checked; also: cleavable moiety between Glu23 side chain and N-terminus cut by MMP2, macrocycle opened, cut site not given here
Average EC50, pSTAT5 assay in pan T cells, MMP2 cleaved molecule [1]: 0.883 nM

B3: CMP-303, MMP2 cleaved (ligand)
chain: PLGLAGAPTSSSTKKTQLQLEHLLLDLQEILNGINNYKNPKLTR[Nle]L[hSer][Yn3]KF[Ygp][Nle]PKKATELKHLQCLEEELKPLEEVL[hSer]LAQSKNFHLRPRDLISNINVIVLELKGSETTF[hSer]CEYADETATIVEFLNRWITFSQSIISTLT
modifications: ends and bridges not checked; also: cleaved by MMP2 within the cleavable peptide, macrocycle opened, cut site not given here, PEG4 linker
Average EC50, pSTAT5 assay in pan T cells, MMP2 cleaved molecule [1]: 4.4 nM

B5: CMP-138 (ligand)
chain: APTSSSTKKTQLQLEHLLLDLQ[Nle]ILNGIENYKNPKLTR[Nle]L[hSer][Yn3]KF[Ygp][Nle]PKKATELKHLQCLEEELKPLEEVL[hSer]LAQSKNFHLRPRDLISNINVIVLELKGSETTF[hSer]CEYADETATIVEFLNRWITFSQSIISTLT
modifications: disulfide 58-105; bridge N-29; not fully specified (residue 29, bridges)
Kd [2]: 11.7 nM
koff [2]: 0.0105 s⁻¹
kon [2]: 898000 M⁻¹ s⁻¹
Kd [3]: 12.3 nM
koff [3]: 0.00284 s⁻¹
kon [3]: 232000 M⁻¹ s⁻¹

B6: CMP-302 (ligand)
chain: GPLGLAGAPTSSSTKKTQLQLEHLLLDLQEILNGINNYKNPKLTR[Nle]L[hSer][Yn3]KF[Ygp][Nle]PKKATELKHLQCLEEELKPLEEVL[hSer]LAQSKNFHLRPRDLISNINVIVLELKGSETTF[hSer]CEYADETATIVEFLNRWITFSQSIISTLT
modifications: lactam N-30; ends not checked
Average EC50, pSTAT5 assay in pan T cells, intact molecule [1]: 63.4 nM

B7: CMP-302, MMP2 cleaved (ligand)
chain: GPLGLAGAPTSSSTKKTQLQLEHLLLDLQEILNGINNYKNPKLTR[Nle]L[hSer][Yn3]KF[Ygp][Nle]PKKATELKHLQCLEEELKPLEEVL[hSer]LAQSKNFHLRPRDLISNINVIVLELKGSETTF[hSer]CEYADETATIVEFLNRWITFSQSIISTLT
modifications: ends and bridges not checked; also: cleaved by MMP2 within the cleavable peptide, macrocycle opened, cut site not given here
Average EC50, pSTAT5 assay in pan T cells, MMP2 cleaved molecule [1]: 1.43 nM

B9: CMP-303 (ligand)
chain: PLGLAGAPTSSSTKKTQLQLEHLLLDLQEILNGINNYKNPKLTR[Nle]L[hSer][Yn3]KF[Ygp][Nle]PKKATELKHLQCLEEELKPLEEVL[hSer]LAQSKNFHLRPRDLISNINVIVLELKGSETTF[hSer]CEYADETATIVEFLNRWITFSQSIISTLT
modifications: linker N-29 via PEG4′; ends not checked
Average EC50, pSTAT5 assay in pan T cells, intact molecule [1]: 97.9 nM

B11: CMP-136 (ligand)
chain: APTSSSTKKTQLQLEHLLLDLQ[Nle]ILNGIENYKNPKLTR[Nle]L[hSer][Yn3″]KF[Ygp″][Nle]PKKATELKHLQCLEEELKPLEEVL[hSer]LAQSKNFHLRPRDLISNINVIVLELKGSETTF[hSer]CEYADETATIVEFLNRWITFSQSIISTLT
modifications: disulfide 58-105; bridge N-29; not fully specified (residue 29, bridges); also: cleavable peptide sequence not given here
Kd [2]: 8.44 nM
koff [2]: 0.00767 s⁻¹
kon [2]: 909000 M⁻¹ s⁻¹
Kd [3]: 12.6 nM
koff [3]: 0.00498 s⁻¹
kon [3]: 396000 M⁻¹ s⁻¹

Next, values leading:

Average EC50, pSTAT5 assay in pan T cells, intact molecule [1]: 128 nM
B1: CMP-305 (ligand)
chain: APTSSSTKKTQLQLEHLLLDLQKILNGINNYKNPKLTR[Nle]L[hSer][Yn3]KF[Ygp][Nle]PKKATELKHLQCLEEELKPLEEVL[hSer]LAQSKNFHLRPRDLISNINVIVLELKGSETTF[hSer]CEYADETATIVEFLNRWITFSQSIISTLT
modifications: linker 15-23 via cleavable moiety; ends not checked; also: cleavable peptide of the bridge not defined

Average EC50, pSTAT5 assay in pan T cells, intact molecule [1]: 110 nM
B4: CMP-304 (ligand)
chain: PLGLAGAPTSSSTKKTQLQLEHLLLDLQEILNGINNYKNPKLTR[Nle]L[hSer][Yn3]KF[Ygp][Nle]PKKATELKHLQCLEEELKPLEEVL[hSer]LAQSKNFHLRPRDLISNINVIVLELKGSETTF[hSer]CEYADETATIVEFLNRWITFSQSIISTLT
modifications: linker N-29 via PEG9″; ends not checked

Average EC50, pSTAT5 assay in pan T cells, MMP2 cleaved molecule [1]: 3.26 nM
B8: CMP-305, MMP2 cleaved (ligand)
chain: APTSSSTKKTQLQLEHLLLDLQKILNGINNYKNPKLTR[Nle]L[hSer][Yn3]KF[Ygp][Nle]PKKATELKHLQCLEEELKPLEEVL[hSer]LAQSKNFHLRPRDLISNINVIVLELKGSETTF[hSer]CEYADETATIVEFLNRWITFSQSIISTLT
modifications: ends and bridges not checked; also: cleavable moiety between Glu15 and Lys23 side chains cut by MMP2, macrocycle opened, cut site not given here

Average EC50, pSTAT5 assay in pan T cells, MMP2 cleaved molecule [1]: 8.61 nM
B10: CMP-304, MMP2 cleaved (ligand)
chain: PLGLAGAPTSSSTKKTQLQLEHLLLDLQEILNGINNYKNPKLTR[Nle]L[hSer][Yn3]KF[Ygp][Nle]PKKATELKHLQCLEEELKPLEEVL[hSer]LAQSKNFHLRPRDLISNINVIVLELKGSETTF[hSer]CEYADETATIVEFLNRWITFSQSIISTLT
modifications: ends and bridges not checked; also: cleaved by MMP2 within the cleavable peptide, macrocycle opened, cut site not given here, PEG9 linker

Kd [2]: 59.5 nM
koff [2]: 0.0122 s⁻¹
kon [2]: 206000 M⁻¹ s⁻¹
Kd [3]: 9.19 nM
koff [3]: 0.000786 s⁻¹
kon [3]: 85500 M⁻¹ s⁻¹
B12: CMP-319 (ligand)
chain: RGRRVANLVGAPTSSSTKKTQLQLEHLLLDLQEILNGINNYKNPKLTR[Nle]L[hSer][Yn3(3)]KF[Ygp(3)][Nle]PKKATELKHLQCLEEELKPLEEVL[hSer]LAQSKNFHLRPRDLISNINVIVLELKGSETTF[hSer]CEYADETATIVEFLNRWITFSQSIISTLT
modifications: lactam N-33; not fully specified (bridges)
